The source of these data is patent US20260098070A1 (DEM BIOPHARMA, published 2026).

In experiment [1] the target is CLEC10A expressed on transfected HEK293 cells (human) (UniProt Q8IUN9). Put plainly: flow cytometry, live HEK293 transfectants, 5 µg/mL probe in PBS+Ca2+/Mg2+, AF647 anti-human Fc. (In flow cytometry, cells or beads pass a laser one at a time.)
Experiment [2] has as its target T1, CD177 ECD-Fc (CD177 extracellular domain with Fc tag) (UniProt Q8N6Q3 22-408, limits assumed).
T1 construct: extracellular domain; also called CD177-Fc; recombinant CD177 ECD; not shown: Fc tag
T1 sequence (looked up): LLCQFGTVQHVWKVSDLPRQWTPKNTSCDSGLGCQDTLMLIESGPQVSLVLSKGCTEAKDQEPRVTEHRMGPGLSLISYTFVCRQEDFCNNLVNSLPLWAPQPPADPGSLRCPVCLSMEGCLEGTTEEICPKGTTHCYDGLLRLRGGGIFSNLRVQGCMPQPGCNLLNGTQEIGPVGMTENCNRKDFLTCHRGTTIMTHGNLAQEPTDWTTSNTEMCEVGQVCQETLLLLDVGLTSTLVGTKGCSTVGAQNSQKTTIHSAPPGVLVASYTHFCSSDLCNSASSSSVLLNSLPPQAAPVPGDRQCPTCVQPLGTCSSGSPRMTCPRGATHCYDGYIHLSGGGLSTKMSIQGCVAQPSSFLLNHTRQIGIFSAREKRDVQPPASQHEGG
The experiment in a line: ELISA, immobilized CD177 ECD-Fc, biotinylated peptide pre-incubated with HRP-streptavidin. The method, then: To evaluate the binding of aglycosylated hSMAGP ECD to CD177, an hSMAGP ECD peptide (H2N-[…]-Biotin-amide (SEQ ID NO: 62)) was chemically synthesized. An extra lysine residue was added to the C terminus to facilitate biotinylation. Another peptide, with a scrambled hSMAGP ECD sequence (H2N-[…]-Biotin-amide (SEQ ID NO: 63)), was synthesized as a control. Peptide binding to the recombinant CD177 ECD-Fc (CD177 extracellular domain with Fc tag) or hIgG1-Fc (IgG1 domain with Fc tag) negative control was evaluated in an enzyme-linked immunosorbent assay (ELISA). CD177 ECD-Fc and hIgG1-Fc were immobilized to separate Corning 96-well Clear Flat Bottom Polystyrene High Bind Microplates at 4° C. overnight in PBS. Plates were blocked using 5% skim milk. Biotinylated hSMAGP ECD peptide or the scrambled control (10 μg/ml) was pre-incubated with HRP-conjugated streptavidin (5 μg/ml) and added to the plates. In a control assay, an anti-CD177 antibody (Biolegend Cat #315802; 10 μg/ml) was premixed with the biotinylated SMAGP ECD peptide. The signal was developed using TMB substrate. The assay was performed in triplicate.
For orientation: An ELISA detects its analyte on a solid surface through an enzyme-linked reagent.

No end group written: not given here. *: point of attachment. Biotin = O=C1N[C@H]2[C@H](CS[C@H]2CCCCC(=O)*)N1

CLEC10A expressed on transfected HEK293 cells (human), sequence (Q8IUN9 whole entry, the tested form may be a part): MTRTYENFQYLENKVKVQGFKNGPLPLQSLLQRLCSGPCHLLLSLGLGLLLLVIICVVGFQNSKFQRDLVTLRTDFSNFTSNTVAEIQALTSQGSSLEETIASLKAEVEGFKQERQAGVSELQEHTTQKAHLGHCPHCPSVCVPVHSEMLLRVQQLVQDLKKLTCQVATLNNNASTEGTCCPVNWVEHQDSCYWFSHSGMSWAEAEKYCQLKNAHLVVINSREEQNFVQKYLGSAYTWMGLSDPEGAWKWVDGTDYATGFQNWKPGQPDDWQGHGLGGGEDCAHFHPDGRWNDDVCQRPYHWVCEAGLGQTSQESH

For hSMAGP ECD-hIgG1 Fc (Fc fusion), in experiment [1], the fold change in median fluorescence intensity over control cells was 3.3 fold.

B1: aglycosylated scrambled hSMAGP ECD peptide (peptide)
peptide: TRTTLIMESTTPALMLLEPLGSPQDAPTSTEEAPSLK(Biotin)-NH2
modifications: N-terminus assumed
SMILES: CC[C@H](C)[C@H](NC(=O)[C@H](CC(C)C)NC(=O)[C@@H](NC(=O)[C@@H](NC(=O)[C@H](CCCNC(=N)N)NC(=O)[C@@H](N)[C@@H](C)O)[C@@H](C)O)[C@@H](C)O)C(=O)N[C@@H](CCSC)C(=O)N[C@@H](CCC(=O)O)C(=O)N[C@@H](CO)C(=O)N[C@H](C(=O)N[C@H](C(=O)N1CCC[C@H]1C(=O)N[C@@H](C)C(=O)N[C@@H](CC(C)C)C(=O)N[C@@H](CCSC)C(=O)N[C@@H](CC(C)C)C(=O)N[C@@H](CC(C)C)C(=O)N[C@@H](CCC(=O)O)C(=O)N1CCC[C@H]1C(=O)N[C@@H](CC(C)C)C(=O)NCC(=O)N[C@@H](CO)C(=O)N1CCC[C@H]1C(=O)N[C@@H](CCC(N)=O)C(=O)N[C@@H](CC(=O)O)C(=O)N[C@@H](C)C(=O)N1CCC[C@H]1C(=O)N[C@H](C(=O)N[C@@H](CO)C(=O)N[C@H](C(=O)N[C@@H](CCC(=O)O)C(=O)N[C@@H](CCC(=O)O)C(=O)N[C@@H](C)C(=O)N1CCC[C@H]1C(=O)N[C@@H](CO)C(=O)N[C@@H](CC(C)C)C(=O)N[C@@H](CCCCNC(=O)CCCC[C@@H]1SC[C@@H]2NC(=O)N[C@@H]21)C(N)=O)[C@@H](C)O)[C@@H](C)O)[C@@H](C)O)[C@@H](C)O
notes: Pre-incubated with HRP-conjugated streptavidin before addition to the plates; also called scrambled control
For the molecule B1, the binding result in experiment [2] is recorded as “no binding (tested: 10 µg/ml)”.
